Experiment [1] addresses human melanocortin-4 receptor (human) (UniProt P32245).
Experiment [2] deals with human melanocortin-1 receptor (human) (UniProt Q01726).
Experiment [3] addresses human melanocortin-5 receptor (human) (UniProt P33032).
For experiment [4], the target named is human melanocortin-3 receptor (human) (UniProt P41968).
Chain of UniProt P41968 (P41968 whole entry): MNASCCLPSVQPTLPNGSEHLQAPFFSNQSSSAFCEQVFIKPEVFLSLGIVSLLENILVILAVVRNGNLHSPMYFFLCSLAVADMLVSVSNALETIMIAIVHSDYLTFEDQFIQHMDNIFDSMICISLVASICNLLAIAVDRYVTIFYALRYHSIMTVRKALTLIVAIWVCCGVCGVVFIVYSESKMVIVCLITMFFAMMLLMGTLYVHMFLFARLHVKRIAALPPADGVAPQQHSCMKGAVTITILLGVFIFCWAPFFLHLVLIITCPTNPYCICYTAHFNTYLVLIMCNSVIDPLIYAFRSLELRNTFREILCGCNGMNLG

Chain of UniProt P33032 (P33032 whole entry): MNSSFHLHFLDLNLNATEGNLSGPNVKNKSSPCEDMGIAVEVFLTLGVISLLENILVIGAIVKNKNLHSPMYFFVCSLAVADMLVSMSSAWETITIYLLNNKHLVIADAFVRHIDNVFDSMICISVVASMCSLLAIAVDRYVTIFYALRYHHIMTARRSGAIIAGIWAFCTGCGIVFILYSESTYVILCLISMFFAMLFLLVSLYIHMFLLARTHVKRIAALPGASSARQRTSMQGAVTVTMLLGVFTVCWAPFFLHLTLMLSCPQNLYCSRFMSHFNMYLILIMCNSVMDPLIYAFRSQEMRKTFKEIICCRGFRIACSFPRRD
Chain of UniProt Q01726 (Q01726 whole entry): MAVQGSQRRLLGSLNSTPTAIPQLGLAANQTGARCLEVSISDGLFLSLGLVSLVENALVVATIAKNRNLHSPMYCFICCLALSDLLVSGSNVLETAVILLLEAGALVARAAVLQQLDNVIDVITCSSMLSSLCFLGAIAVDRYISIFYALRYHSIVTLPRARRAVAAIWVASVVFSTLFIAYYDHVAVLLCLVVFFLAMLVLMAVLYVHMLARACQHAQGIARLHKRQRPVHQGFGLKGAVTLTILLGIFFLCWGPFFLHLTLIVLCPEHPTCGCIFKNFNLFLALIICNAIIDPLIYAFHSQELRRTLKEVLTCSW
Chain of UniProt P32245 (P32245 whole entry): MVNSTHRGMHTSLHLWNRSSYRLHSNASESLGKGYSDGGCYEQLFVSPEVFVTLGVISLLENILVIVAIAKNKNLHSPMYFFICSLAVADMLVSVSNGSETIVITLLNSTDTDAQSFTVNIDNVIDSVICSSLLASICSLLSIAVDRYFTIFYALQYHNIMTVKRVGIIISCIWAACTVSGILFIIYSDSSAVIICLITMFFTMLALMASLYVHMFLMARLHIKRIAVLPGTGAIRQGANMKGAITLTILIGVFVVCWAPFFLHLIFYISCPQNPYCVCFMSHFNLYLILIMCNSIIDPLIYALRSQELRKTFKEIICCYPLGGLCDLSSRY

With “α-melanocyte-stimulating hormone (ligand)”, the EC90 of the cAMP response (split-luciferase cAMP sensor) in experiment [1] was 70 nM; in experiment [2], 10 nM; in experiment [3], 500 nM; in experiment [4] it was 30 nM.

(Values after publication doi:10.1101/2022.01.03.474807.)
